Source: PMC9259645, “Discovery of archaeal fusexins homologous to eukaryotic HAP2/GCS1 gamete fusion proteins” (Nature Communications, 2022)

Target: the molecule itself
Test: crystal structure; X-ray, 2.3 Å, space group C2, three-fold non-crystallographic symmetry; crystals grown at 20 °C from purified Fsx1E (in 20 mM Na-HEPES pH 7.8, 2.5 M NaCl) mixed with 23% PEG 4000, 0.1 M Tris-HCl pH 8.5, 0.2 M CaCl2

B1: Fusexin1 ectodomain (Fsx1E), residues D25-S535 with T369C, crystallised construct (domain or fragment, UniProt C0HM55 25-535, looked up)
chain: DSITYNSGTSEFFDGDVFAIEVTADQSTDEIDIYLGASELSEKTDGEVNQDLSIEFTHQDSKLKYSTSTSDELRDIVTLTTYYEDGFDTEQDAIDAIKSDCYDLNQNGNGSGRYSRYYSVTSPVYDYEIYCFQKNEKLATPAYIDNPDEIFTAKAELQAGDKTIQSATLSNGDAGDGTVTDLGDSKISWNGNLDLGASEPENSRVIALYSNDFENGWRIGNKQSYEDYKTFIGGGDAYDLLIDWQDGTYTASEVEDELVNTDANQAVEEASSSTTDLVNAKVKDSSLDTGSFVYDTPELLSYPSFTVYVDAGENGYIEVTKPTGDPDIISTSSTEIKEGDEGTVCATVENVGDGEGEFSGRLSSCGEGFSIVDDQNTKNVGAGESVTYSFDVAFSSVSSESKEISGSCTFEVNGVESSDSTSVSVTGIQQSECNPGDQRREKNENDRWEIYTCQDNGLTYEYDVTCAEDEKAVAQGDNQFSCEKQDDDSGGGDNTGSDSGLFSNLFGGSGS
notes: Fusexin1 (Fsx1), archaeal fusexin from a metagenomic ORF of a hypersaline environment (IMG genome 3300000868, scaffold JGI12330J12834_1000008, ORF 8); extracellular region, residues D25-S535; Expressed from pLJ6 (derived from pHLsec3) behind the chicken Crypα signal peptide, in frame with a 3' 8xHis tag; T369C was introduced to help heavy atom derivatisation; Homotrimer in the crystal; also …
In the case of B1, the “stoichiometry N” value is reported as 3.
